{"source": "patent US20140314667A1", "about": "“METHODS OF TREATING EPIDERMAL GROWTH FACTOR DELETION MUTANT VIII RELATED DISORDERS” (AMGEN INC., priority 2011, published 2014)", "key": {"[1]": {"molecular_target": "T1, EGFRvIII expressing cells (H1477) (Homo sapiens, UniProt P00533, DELINS30-297G)", "T1 construct": "host or cells: H1477 cells", "assay": "Selectivity for EGFRvIII expressing cells compared to ABX-EGF", "format": "binding"}, "[2]": {"molecular_target": "T2, NR6 Wt cells (NR6 cells expressing EGF receptor) (Homo sapiens, UniProt P00533)", "T2 construct": "expressed in transfected cells; host or cells: NR6 cells (NR6 Wt)", "assay": "Native cell binding assay by FMAT, NR6 Wt cells", "settings": "XenoMax approach, in words", "source_text": "The same type of native binding assay was done on NR6 Wt cells (NR6 cells expressing EGF receptor) (See Batra et al. Epidermal growth factor ligand-independent, unregulated, cell-transforming potential of a naturally occurring human mutant EGFRvIII gene. Cell Growth Differ. 6(10):1251-9 (1995)) to eliminate the binding is due to binding to Wt receptor (Table 3.8). ABX-EGF was used as a positive control and PK 16.3.1 at the same concentration was used as a negative control antibody. 3 out the 134 NR6 M binders were binding strongly to NR6 Wt cells. 190 of the 244 wells bound EGFRvIII peptide in Elisa were also bound to the native form on cells.\nIn this example, binding of anti-EGFRvIII antibodies to NR6 M cells was measured. Specifically, unquantitated supernatants of XenoMax derived IgG1 recombinant antibodies were assayed for their ability to bind to NR6 M and NR6 WT cells. Cells were seeded at 10000/well and incubated overnight at 37 C in FMAT 96 well plates. Media was removed and 40 μl mini lipo supernatant (titrated down) was added, the cells were incubated on ice for 1 hr. […] The PK 16.3.1 antibody was used as a negative control. The cells were washed with Cold PBS, secondary antibody was added (SS Alexa antihuman IgG Fc) at 1 μg/ml, 40 μl/well and incubated on ice for 1 hr. The cells were then washed with Cold PBS and fixed and read by FMAT. All antibodies were tested for specificity for binding by counter screening against NR6 WT cells."}, "[3]": {"molecular_target": "T3, EGFRvIII-peptide-OVA (Homo sapiens, UniProt P00533, DELINS30-297G)", "T3 construct": "207 μg of EGFRvIII PEP3 was reduced; host or cells: synthetic peptide, chemical conjugation", "assay": "B-cell culture supernatant ELISA on EGFRvIII-peptide-OVA", "format": "binding", "settings": "XenoMax approach, in words", "procedure": "B-cells from the above-discussed animals were harvested and cultured. Those secreting EGFRvIII-peptide specific antibodies were isolated as described in Babcook et al., Proc. Natl. Acad. Sci. USA, 93:7843-7848 (1996). ELISA was used to identify primary EGFRvIII-peptide-OVA-specific wells. About 5 million B-cells were cultured from XenoMouse animals in 24596 well plates at 500 or 150 or 50 cells/well, and were screened on EGFRvIII-peptide-OVA to identify the antigen-specific wells.\n244 of EGFRvIII-peptide-OVA-Elisa positive wells of OD >0.5 were screened again on EGFRvIII-peptide-OVA and on OVA to confirm that they were EGFRvIII-peptide specific."}, "[4]": {"molecular_target": "T4, EGFRvIII receptor in NR6 M cells (Homo sapiens, UniProt P00533, DELINS30-297G)", "T4 construct": "NR6 M cells stably expressing full length EGFRvIII; expressed in transfected cells; host or cells: NR6 cells (NR6 M)", "assay": "Internalization of EGFRvIII receptor by recombinant mAbs (FACS)", "format": "cell-based", "settings": "0.25 μg/ml antibody, 1 hr", "procedure": "XenoMax derived IgG1 recombinant antibodies were expressed, purified and quantitated as described previously. Antibodies were further assayed for their ability to internalize the EGFRvIII receptor in NR6 M cells. […] The cells were washed with cold 10% FCS in PBS and secondary antibody (SS Alexa antihuman IgG Fab) at 3 μg/ml Fab was added and incubated for 7 mins on ice. The cells were washed with cold 10% FCS in PBS once and then resuspended in cold media. Next, two sets of the triplicate were incubated at 37° C. and the remaining set was incubated at 4° C. for 1 hr. After that the cells incubated at 4° C. and one set of the cells incubated at 37° C. were treated with glutathione (as previously mentioned) for 1 hr on ice. Then the cells were washed and resuspended in 100 μl of cold 1% FCS in PBS and analyzed by FACS. The % internalization was calculated from the geometric mean obtained from the FACS analysis [(mean at 37° C. with glutathione−mean at 4° C. with glutathione)/(mean at 37° C. without glutathione−mean at 4 C with glutathione)]."}}, "data": [{"molecule": "139: XenoMax derived anti-EGFRvIII antibody, SEQ ID NO: 10/25 (antibody, listed as Homo sapiens, V domains shown) VH: EVQVLESGGGLVQPGGSLRLSCAASGFTFSSYAMSWVRQAPGKGLEWVSAISGSGGSTNYADSVKGRFTISRDNSKNTLYLQMNSLRAEDTAVYYCAGSSGWSEYWGQGTLVTVSS VL: DIQMTQSPSSLSASVGDRVTITCRASQGIRNNLAWYQQKPGKAPKRLIYAASNLQSGVPSRFTGSGSGTEFTLIVSSLQPEDFATYYCLQHHSYPLTSGGGTKVEIK", "values": [{"measurement": "selectivity for EGFRvIII expressing cells (H1477) as compared to ABX-EGF", "setting": "[1]", "result": "superior selectivity"}, {"measurement": "cross-reactivity with wild type EGFR", "setting": "[2]", "result": "limited cross-reactivity with wild type EGFR"}, {"measurement": "binding with the pep3", "setting": "[3]", "result": "highly specific"}, {"measurement": "FACS Geometric mean With glutathione 4° C.", "setting": "[4]", "result": 4.88}, {"measurement": "FACS Geometric mean With glutathione 37° C.", "setting": "[4]", "result": 19.23}]}]}
